Experimental data: patent US20080213836

Assays:
[1] = biological target: recombinant fusion protein of Medaka gelatinase A
[2] = biological target: mouse laminin
[3] = biological target: gelatin
[4] = biological target: D4K-cleavage site-containing control protein (Novagen)
[5] = biological target: human single-chain tPA fusion protein with N-terminal His-tag/EP-cleavage site, P00750
[6] = biological target: T1, Boc-Glu(OBzl)-Ala-Arg-MCA
T1 chain: EAR

[7] = biological target: T2, recombinant fusion protein of human kallikrein 8 (hK8), O60259
T2 sequence (O60259 whole entry, looked up): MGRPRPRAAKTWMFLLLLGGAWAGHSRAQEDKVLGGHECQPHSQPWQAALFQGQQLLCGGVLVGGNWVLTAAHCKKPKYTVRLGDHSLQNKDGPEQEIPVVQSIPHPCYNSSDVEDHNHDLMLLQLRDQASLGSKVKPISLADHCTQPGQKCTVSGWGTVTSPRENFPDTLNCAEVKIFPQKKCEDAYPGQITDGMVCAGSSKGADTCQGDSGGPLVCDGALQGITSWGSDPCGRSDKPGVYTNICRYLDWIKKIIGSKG

[8] = biological target: T3, Gly-Asp-Asp-Asp-Asp-Lys-β-naphthylamide
T3 chain: GDDDDK

[9] = biological target: Human plasma fibronectin, P02751
Chain of Human plasma fibronectin, P02751 (P02751 other isoform, or with tags, fused parts or gaps): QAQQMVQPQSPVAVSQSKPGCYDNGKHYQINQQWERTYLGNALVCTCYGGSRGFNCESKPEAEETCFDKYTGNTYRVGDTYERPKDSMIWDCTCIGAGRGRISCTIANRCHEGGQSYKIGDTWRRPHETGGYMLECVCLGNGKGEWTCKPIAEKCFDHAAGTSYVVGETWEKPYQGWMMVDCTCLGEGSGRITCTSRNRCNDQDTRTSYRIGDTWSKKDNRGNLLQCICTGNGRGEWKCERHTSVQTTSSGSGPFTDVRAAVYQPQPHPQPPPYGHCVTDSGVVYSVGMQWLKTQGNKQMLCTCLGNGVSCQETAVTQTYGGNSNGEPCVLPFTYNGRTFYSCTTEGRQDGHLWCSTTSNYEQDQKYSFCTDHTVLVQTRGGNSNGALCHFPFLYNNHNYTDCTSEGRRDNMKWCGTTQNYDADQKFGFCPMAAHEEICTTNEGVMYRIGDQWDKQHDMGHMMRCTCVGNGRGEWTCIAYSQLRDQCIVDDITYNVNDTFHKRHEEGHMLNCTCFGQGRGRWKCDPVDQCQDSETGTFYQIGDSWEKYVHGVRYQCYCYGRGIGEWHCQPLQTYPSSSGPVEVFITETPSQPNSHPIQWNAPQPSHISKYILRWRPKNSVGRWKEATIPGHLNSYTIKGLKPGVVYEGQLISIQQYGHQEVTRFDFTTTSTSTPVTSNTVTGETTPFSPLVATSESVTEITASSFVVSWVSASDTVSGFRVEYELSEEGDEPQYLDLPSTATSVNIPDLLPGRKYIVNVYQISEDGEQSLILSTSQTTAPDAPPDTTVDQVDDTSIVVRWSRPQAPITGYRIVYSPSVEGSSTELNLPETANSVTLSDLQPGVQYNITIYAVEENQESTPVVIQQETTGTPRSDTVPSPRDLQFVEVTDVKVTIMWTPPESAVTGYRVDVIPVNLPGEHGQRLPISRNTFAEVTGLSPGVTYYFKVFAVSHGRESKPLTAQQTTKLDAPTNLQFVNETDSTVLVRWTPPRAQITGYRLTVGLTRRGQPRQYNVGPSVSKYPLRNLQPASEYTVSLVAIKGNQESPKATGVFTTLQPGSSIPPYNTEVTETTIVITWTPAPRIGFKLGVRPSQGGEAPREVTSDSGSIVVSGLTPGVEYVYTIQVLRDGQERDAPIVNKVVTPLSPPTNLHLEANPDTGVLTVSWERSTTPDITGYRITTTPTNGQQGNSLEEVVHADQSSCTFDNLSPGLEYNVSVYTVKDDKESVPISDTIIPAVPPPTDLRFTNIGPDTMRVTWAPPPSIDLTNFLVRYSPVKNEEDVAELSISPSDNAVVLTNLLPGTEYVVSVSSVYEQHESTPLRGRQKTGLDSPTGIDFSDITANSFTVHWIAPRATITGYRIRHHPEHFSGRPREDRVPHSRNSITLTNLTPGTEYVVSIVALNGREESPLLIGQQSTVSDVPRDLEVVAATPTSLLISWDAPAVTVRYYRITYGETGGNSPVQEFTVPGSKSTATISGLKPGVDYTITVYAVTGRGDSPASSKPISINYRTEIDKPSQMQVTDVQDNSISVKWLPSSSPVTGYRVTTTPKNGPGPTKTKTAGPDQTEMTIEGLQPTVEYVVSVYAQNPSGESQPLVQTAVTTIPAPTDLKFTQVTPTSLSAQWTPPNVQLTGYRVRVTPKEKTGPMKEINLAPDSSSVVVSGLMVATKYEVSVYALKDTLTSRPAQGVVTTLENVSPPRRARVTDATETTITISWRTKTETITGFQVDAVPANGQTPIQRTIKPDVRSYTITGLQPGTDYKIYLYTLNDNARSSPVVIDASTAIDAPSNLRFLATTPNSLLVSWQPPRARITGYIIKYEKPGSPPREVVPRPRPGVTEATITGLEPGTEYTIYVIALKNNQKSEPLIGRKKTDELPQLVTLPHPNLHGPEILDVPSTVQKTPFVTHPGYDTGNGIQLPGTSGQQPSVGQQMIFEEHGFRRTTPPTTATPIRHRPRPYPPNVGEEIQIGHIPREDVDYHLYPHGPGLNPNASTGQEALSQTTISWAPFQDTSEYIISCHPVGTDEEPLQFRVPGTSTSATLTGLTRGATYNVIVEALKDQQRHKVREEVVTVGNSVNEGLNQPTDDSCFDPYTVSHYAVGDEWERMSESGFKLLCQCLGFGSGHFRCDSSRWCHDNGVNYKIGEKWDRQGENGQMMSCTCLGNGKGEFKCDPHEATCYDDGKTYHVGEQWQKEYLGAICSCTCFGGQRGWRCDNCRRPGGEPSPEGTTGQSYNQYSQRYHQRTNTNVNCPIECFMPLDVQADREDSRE

[10] = biological target: recombinant fusion protein of Medaka trypsinogen
[11] = biological target: T4, Pro-Phe-Arg-MCA
T4 chain: PFR

[12] = biological target: T5, Z-Phe-Arg-MCA
T5 chain: FR

[13] = biological target: T6, human fibrinogen, P02671
T6 chain 1: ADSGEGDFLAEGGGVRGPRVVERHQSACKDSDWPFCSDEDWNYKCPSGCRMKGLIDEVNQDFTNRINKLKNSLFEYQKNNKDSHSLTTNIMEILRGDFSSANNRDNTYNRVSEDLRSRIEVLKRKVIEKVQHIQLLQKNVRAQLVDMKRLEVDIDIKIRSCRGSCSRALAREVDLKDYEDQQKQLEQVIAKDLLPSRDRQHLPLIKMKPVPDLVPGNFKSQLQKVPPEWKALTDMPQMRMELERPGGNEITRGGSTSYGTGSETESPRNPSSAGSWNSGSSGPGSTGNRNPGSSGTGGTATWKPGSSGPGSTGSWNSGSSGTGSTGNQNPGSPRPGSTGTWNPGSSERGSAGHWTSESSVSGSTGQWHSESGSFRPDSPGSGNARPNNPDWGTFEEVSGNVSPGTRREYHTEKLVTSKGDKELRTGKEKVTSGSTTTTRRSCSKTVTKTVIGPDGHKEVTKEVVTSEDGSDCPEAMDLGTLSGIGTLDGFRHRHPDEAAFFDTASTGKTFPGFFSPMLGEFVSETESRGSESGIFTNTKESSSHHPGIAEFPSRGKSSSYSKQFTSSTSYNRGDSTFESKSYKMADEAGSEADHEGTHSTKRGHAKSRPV
T6 chain 2: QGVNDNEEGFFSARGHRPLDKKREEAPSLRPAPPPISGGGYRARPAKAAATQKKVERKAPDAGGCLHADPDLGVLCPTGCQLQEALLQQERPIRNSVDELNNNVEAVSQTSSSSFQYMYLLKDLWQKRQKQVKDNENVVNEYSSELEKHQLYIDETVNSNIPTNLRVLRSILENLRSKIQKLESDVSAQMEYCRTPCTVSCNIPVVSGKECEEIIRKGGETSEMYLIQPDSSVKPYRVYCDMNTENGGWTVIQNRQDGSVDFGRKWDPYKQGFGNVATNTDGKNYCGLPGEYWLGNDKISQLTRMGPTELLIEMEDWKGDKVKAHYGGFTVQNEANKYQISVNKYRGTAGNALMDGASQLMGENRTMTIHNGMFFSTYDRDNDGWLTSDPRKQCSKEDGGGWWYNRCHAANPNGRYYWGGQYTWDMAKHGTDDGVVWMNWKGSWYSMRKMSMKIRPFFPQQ
T6 chain 3: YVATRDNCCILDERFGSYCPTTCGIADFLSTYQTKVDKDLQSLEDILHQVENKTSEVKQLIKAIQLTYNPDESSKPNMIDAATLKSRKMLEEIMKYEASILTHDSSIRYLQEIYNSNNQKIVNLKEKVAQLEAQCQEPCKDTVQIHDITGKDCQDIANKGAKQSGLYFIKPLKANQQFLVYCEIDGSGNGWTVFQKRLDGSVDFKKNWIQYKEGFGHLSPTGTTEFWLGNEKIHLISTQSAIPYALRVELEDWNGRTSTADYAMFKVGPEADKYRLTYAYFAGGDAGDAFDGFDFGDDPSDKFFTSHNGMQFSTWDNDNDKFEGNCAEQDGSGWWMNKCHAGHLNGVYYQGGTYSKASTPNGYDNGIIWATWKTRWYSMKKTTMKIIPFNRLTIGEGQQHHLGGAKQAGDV

[14] = biological target: T7, human high-molecular-weight (HMW) kininogen, P01042
T7 chain: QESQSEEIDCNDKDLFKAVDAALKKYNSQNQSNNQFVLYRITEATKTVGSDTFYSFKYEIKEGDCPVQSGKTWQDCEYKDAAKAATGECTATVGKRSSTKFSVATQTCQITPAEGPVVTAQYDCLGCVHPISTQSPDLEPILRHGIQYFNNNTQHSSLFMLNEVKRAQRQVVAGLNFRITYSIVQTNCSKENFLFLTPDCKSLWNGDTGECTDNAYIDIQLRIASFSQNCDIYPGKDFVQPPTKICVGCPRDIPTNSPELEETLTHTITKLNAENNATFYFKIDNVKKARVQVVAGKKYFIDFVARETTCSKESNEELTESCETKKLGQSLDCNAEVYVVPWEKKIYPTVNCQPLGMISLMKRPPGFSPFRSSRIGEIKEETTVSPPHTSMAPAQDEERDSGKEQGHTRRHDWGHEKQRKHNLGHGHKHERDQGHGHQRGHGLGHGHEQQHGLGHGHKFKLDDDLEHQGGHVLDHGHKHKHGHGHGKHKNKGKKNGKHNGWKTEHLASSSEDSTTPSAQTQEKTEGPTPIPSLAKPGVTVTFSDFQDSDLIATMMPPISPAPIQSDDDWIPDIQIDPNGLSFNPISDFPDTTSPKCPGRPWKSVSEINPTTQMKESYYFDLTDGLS

Chain of human single-chain tPA fusion protein with N-terminal His-tag/EP-cleavage site, P00750 (P00750 whole entry, looked up, the tested form may be a part): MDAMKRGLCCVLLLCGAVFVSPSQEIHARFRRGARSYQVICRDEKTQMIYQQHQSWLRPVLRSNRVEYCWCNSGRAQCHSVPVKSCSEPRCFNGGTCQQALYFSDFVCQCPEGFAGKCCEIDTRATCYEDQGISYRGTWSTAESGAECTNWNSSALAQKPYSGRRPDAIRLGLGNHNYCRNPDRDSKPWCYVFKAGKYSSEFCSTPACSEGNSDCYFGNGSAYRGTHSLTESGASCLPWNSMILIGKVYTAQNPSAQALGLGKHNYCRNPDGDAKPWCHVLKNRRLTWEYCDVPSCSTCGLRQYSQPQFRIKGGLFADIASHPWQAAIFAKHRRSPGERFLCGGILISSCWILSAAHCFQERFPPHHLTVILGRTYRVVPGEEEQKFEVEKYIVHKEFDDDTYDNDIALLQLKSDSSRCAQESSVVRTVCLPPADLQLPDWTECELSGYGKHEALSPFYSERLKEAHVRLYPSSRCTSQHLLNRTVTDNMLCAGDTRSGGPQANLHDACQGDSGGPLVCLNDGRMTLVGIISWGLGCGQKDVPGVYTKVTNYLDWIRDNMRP

B1: Medaka EP-1 serine protease domain (wild-type) (protein)
chain: VVGGVNAEKGAWPWMVSLHWRGRHGCGASLIGRDWLLTAAHCVYGKNTHLQYWSAVLGLHAQSSMNSQEVQIRQVDRIIINKNYNRRTKEADIAMMHLQQPVNFTEWVLPVCLASEDQHFPAGRRCFIAGWGRDAEGGSLPDILQEAEVPLVDQDECQRLLPEYTFTSSMLCAGYPEGGVDSCQGDSGGPLMCLEDARWTLIGVTSFGVGCGRPERPGAYARVSAFTSWIAETRRSSFSDLD
[1]
  cleavage of the fusion protein (SDS-PAGE): A 60-kDa fusion protein was converted by wild-type or mutant proteases to a 55-kDa protein
[2]
  proteolytic activity (SDS-PAGE): Little or no hydrolysis was observed with the fish enzyme for the proteins
[3]
  proteolytic activity (gelatin zymography): Little or no hydrolysis was observed with the fish enzyme for the proteins
[4]
  cleavage of the fusion protein (SDS-PAGE): the Medaka protease specifically cleaved the fusion protein to generate two polypeptides having expected molecular masses of 16- and 32-kDa
[5]
  cleavage of the fusion protein (SDS-PAGE/Western blot): The protein samples treated with the Medaka wild-type or mutant EP proteases, but not with mammalian ones, showed two polypeptides (53- and 55-kDa)
[6]
  Km: 200 µM
  amidolytic activity: much lower than those of the EP proteases of mammalian origin
  kcat: 0.112 s⁻¹
  kcat/Km (mM^-1 · min^-1): 34
[7]
  cleavage of the fusion protein (SDS-PAGE): Digestion with Medaka wild-type and mutant EP proteases generated 31.5-kDa active hK8 by cleaving the D4K sequence
[8]
  Km: 700 µM
  cleavage rate: cleaved GD4K-βNA at a rate comparable to those of the porcine and bovine enzymes
  enzyme activity for GD4K-βNA: EP-1 was approximately three times more active than EP-2
  kcat: 15.7 s⁻¹
  kcat/Km (mM^-1 · min^-1): 1300
[9]
  proteolytic activity (SDS-PAGE): Little or no hydrolysis was observed with the fish enzyme for the proteins
[10]
  conversion of trypsinogen to active trypsin: The trypsinogen was converted to active trypsin by EP-1 faster than by EP-2
[11]
  Km: 10000 µM
  amidolytic activity: much lower than those of the EP proteases of mammalian origin
  kcat: 2.33 s⁻¹
  kcat/Km (mM^-1 · min^-1): 14
[12]
  Km: 100 µM
  amidolytic activity: much lower than those of the EP proteases of mammalian origin
  kcat: 0.0483 s⁻¹
  kcat/Km (mM^-1 · min^-1): 29

B2: Medaka EP-1 serine protease domain mutant E173A (protein)
chain: VVGGVNAEKGAWPWMVSLHWRGRHGCGASLIGRDWLLTAAHCVYGKNTHLQYWSAVLGLHAQSSMNSQEVQIRQVDRIIINKNYNRRTKEADIAMMHLQQPVNFTEWVLPVCLASEDQHFPAGRRCFIAGWGRDAEGGSLPDILQEAEVPLVDQDACQRLLPEYTFTSSMLCAGYPEGGVDSCQGDSGGPLMCLEDARWTLIGVTSFGVGCGRPERPGAYARVSAFTSWIAETRRSSFSDLD
[1]
  D4K cleaving activity: no serious reduction of the D4K cleaving activity for fusion proteins (gelatinase A, hK8, and tPA)
[2]
  hydrolysis: Neither human fibronectin nor laminin was hydrolyzed by the mutants (data not shown)
[5]
  D4K cleaving activity: no serious reduction of the D4K cleaving activity for fusion proteins (gelatinase A, hK8, and tPA)
[6]
  Km: 1000 µM
  enzyme activity against wild-type: The same held true for all the other mutants except for F144A
  kcat: 0.167 s⁻¹
  kcat/Km (mM^-1 · min^-1): 10
[7]
  D4K cleaving activity: no serious reduction of the D4K cleaving activity for fusion proteins (gelatinase A, hK8, and tPA)
[8]
  Km: 300 µM
  enzyme activity against wild-type: The same held true for all the other mutants except for F144A
  kcat: 5.33 s⁻¹
  kcat/Km (mM^-1 · min^-1): 1100
[13]
  nonspecific proteolytic activity: this mutant enzyme still retained a low nonspecific proteolytic activity for protein substrates (HMW kininogen and fibrinogen)
  nonspecific proteolytic activity (SDS-PAGE): The mutant proteases had lower nonspecific proteolytic activity for ... human fibrinogen
[9]
  hydrolysis: Neither human fibronectin nor laminin was hydrolyzed by the mutants (data not shown)
[10]
  activation of trypsinogen: the other mutants activated trypsinogen at a reduced rate
  conversion of trypsinogen to active enzyme: A total of 12 mutants could convert the recombinant Medaka trypsinogen to its active enzyme (data not shown)
[11]
  Km: 1000 µM
  enzyme activity against wild-type: The same held true for all the other mutants except for F144A
  kcat: 0.153 s⁻¹
  kcat/Km (mM^-1 · min^-1): 9
[14]
  nonspecific proteolytic activity: this mutant enzyme still retained a low nonspecific proteolytic activity for protein substrates (HMW kininogen and fibrinogen)
  nonspecific proteolytic activity (SDS-PAGE): The mutant proteases had lower nonspecific proteolytic activity for human HMW kininogen
[12]
  Km: 400 µM
  enzyme activity against wild-type: The same held true for all the other mutants except for F144A
  kcat: 0.0383 s⁻¹
  kcat/Km (mM^-1 · min^-1): 6
